B1: GTGCAC_site9697 (dsDNA)
DNA 1: GAACATTTATTGTGTGTGCACAATTCTTTTTTAACC
DNA 2: GGTTAAAAAAGAATTGTGCACACACAATAAATGTTC
B2: GTGCAC_site10571 (dsDNA)
DNA 1: GATTATTTCTAAAAAGTGCATATTTAAAAATCTCCT
DNA 2: AGGAGATTTTTAAATATGCACTTTTTAGAAATAATC
B3: GTGCAC_site10538 (dsDNA)
DNA 1: TTATTATAATCATTAGTGCATATATTATTTTTATAT
DNA 2: ATATAAAAATAATATATGCACTAATGATTATAATAA
B4: GTGCAC_site10359 (dsDNA)
DNA 1: TACACTTGTAATTGCGTGCACGAAGGATATATATAT
DNA 2: ATATATATATCCTTCGTGCACGCAATTACAAGTGTA
B5: GTGCAC_site10065 (dsDNA)
DNA 1: CTTAAAATATATTTAGTGCATATACTAATATATTAT
DNA 2: ATAATATATTAGTATATGCACTAAATATATTTTAAG
B6: GTGCAC_site9653 (dsDNA)
DNA 1: GTGTACTTTTAAATAGTGCATTTTACAATAATAAAA
DNA 2: TTTTATTATTGTAAAATGCACTATTTAAAAGTACAC
B7: GTGCAC_site9916 (dsDNA)
DNA 1: TATTTCTTTTGGTTGGTGCATAAAATAATACAATAT
DNA 2: ATATTGTATTATTTTATGCACCAACCAAAAGAAATA
B8: GTGCAC_site10440 (dsDNA)
DNA 1: TATTACACATATTATGTGCACATATATAATCAATAT
DNA 2: ATATTGATTATATATGTGCACATAATATGTGTAATA
B9: GTGCAC_site9783 (dsDNA)
DNA 1: TAAATTTATATATAGGTGCGCAATTTGATAATAGTT
DNA 2: AACTATTATCAAATTGCGCACCTATATATAAATTTA
B10: GTGCAC_site9975 (dsDNA)
DNA 1: TGATTCACTATAGTAGTGCATATTATATATATATAT
DNA 2: ATATATATATATAATATGCACTACTATAGTGAATCA
B11: GTGCAC_site10182 (dsDNA)
DNA 1: GTATGATGCATAAGAGTGCATAAGGATATTTCTTCA
DNA 2: TGAAGAAATATCCTTATGCACTCTTATGCATCATAC
B12: GTGCAC_site9588 (dsDNA)
DNA 1: AAAAAAAAAAATTCGGTGCAATGTAATTAATGTAAA
DNA 2: TTTACATTAATTACATTGCACCGAATTTTTTTTTTT
B13: GTGCAC_site9718 (dsDNA)
DNA 1: TCTTTTTGCATGTGTGTGCGCACAAAATACACAAAA
DNA 2: TTTTGTGTATTTTGTGCGCACACACATGCAAAAAGA
B14: GTGCAC_site9663 (dsDNA)
DNA 1: AAATAGTAAGAGATGGTGCGTTTCCTTTTTTTTTTT
DNA 2: AAAAAAAAAAAGGAAACGCACCATCTCTTACTATTT
B15: GTGCAC_site10395 (dsDNA)
DNA 1: ACTTTAGAAATAGAGGTGCTATTTTTATTACCACAC
DNA 2: GTGTGGTAATAAAAATAGCACCTCTATTTCTAAAGT
B16: GTGCAC_site9445 (dsDNA)
DNA 1: TCCTTTATTTTTAAAGTGCATATACATGTACATTAT
DNA 2: ATAATGTACATGTATATGCACTTTAAAAATAAAGGA
B17: GTGCAC_site10226 (dsDNA)
DNA 1: TTTTATGCGCAATAAGTGCATTTAAAATATATATAT
DNA 2: ATATATATATTTTAAATGCACTTATTGCGCATAAAA
B18: GTGCAC_site9794 (dsDNA)
DNA 1: AAAAATATATATTCAGTGCATATAACAAAAATTATA
DNA 2: TATAATTTTTGTTATATGCACTGAATATATATTTTT
B19: GTGCAC_site10625 (dsDNA)
DNA 1: TTTTTATTTTCATATGTGCACTTATATATATATATA
DNA 2: TATATATATATATAAGTGCACATATGAAAATAAAAA
B20: GTGCAC_site10243 (dsDNA)
DNA 1: ACATATTAAATATGAGTGCAATATATATATATATAA
DNA 2: TTATATATATATATATTGCACTCATATTTAATATGT
B21: GTGCAC_site10446 (dsDNA)
DNA 1: ATGTATCCAATAGGAGTGCATAATTCTATTAACACC
DNA 2: GGTGTTAATAGAATTATGCACTCCTATTGGATACAT
B22: GTGCAC_site9684 (dsDNA)
DNA 1: TGTACGAGTCGTAGAGTGCAGTCTGGAGAAGAGTAC
DNA 2: GTACTCTTCTCCAGACTGCACTCTACGACTCGTACA
B23: GTGCAC_site10531 (dsDNA)
DNA 1: AGTAATTATTTTAGAGTGCATAGTTTTTTAATAAAT
DNA 2: ATTTATTAAAAAACTATGCACTCTAAAATAATTACT
B24: GTGCAC_site9982 (dsDNA)
DNA 1: ATTGTTATTTATTGTGTGCGCATTAATACATACATA
DNA 2: TATGTATGTATTAATGCGCACACAATAAATAACAAT
B25: GTGCAC_site9721 (dsDNA)
DNA 1: TATATATATATATATGTGCACTGGACATATTTTTAT
DNA 2: ATAAAAATATGTCCAGTGCACATATATATATATATA
B26: GTGCAC_site9473 (dsDNA)
DNA 1: TGTATTAACAAAAAGGTGCGGATATATATAAAAAAT
DNA 2: ATTTTTTATATATATCCGCACCTTTTTGTTAATACA
B27: GTGCAC_site10335 (dsDNA)
DNA 1: ATCAAGCGCAATGTGGTGCGTAAATTTTGTATTATA
DNA 2: TATAATACAAAATTTACGCACCACATTGCGCTTGAT
B28: GTGCAC_site10774 (dsDNA)
DNA 1: ACGTTAAAATATTGGGTGCTAACACAATAAAAATAA
DNA 2: TTATTTTTATTGTGTTAGCACCCAATATTTTAACGT
B29: GTGCAC_site10175 (dsDNA)
DNA 1: ACTTTTTTGAACAACGTGCACGTATTCATAACAAAA
DNA 2: TTTTGTTATGAATACGTGCACGTTGTTCAAAAAAGT
B30: GTGCAC_site10455 (dsDNA)
DNA 1: AATATTCAATATAAAGTGCATTATTGTGGACCTAAT
DNA 2: ATTAGGTCCACAATAATGCACTTTATATTGAATATT
B31: GTGCAC_site10227 (dsDNA)
DNA 1: TATACATATTTACAAGTGCATAATATTTTACAAAAA
DNA 2: TTTTTGTAAAATATTATGCACTTGTAAATATGTATA
B32: GTGCAC_site9739 (dsDNA)
DNA 1: TTATAAATATTCACTGTGCACTGATGGAATATAAAT
DNA 2: ATTTATATTCCATCAGTGCACAGTGAATATTTATAA
B33: GTGCAC_site9963 (dsDNA)
DNA 1: AATAATAAAAATATTGTGCACTTGTATATTTATTAT
DNA 2: ATAATAAATATACAAGTGCACAATATTTTTATTATT
B34: GTGCAC_site10192 (dsDNA)
DNA 1: ATATTATTATATATAGTGCATATTATTATTTTTATT
DNA 2: AATAAAAATAATAATATGCACTATATATAATAATAT
B35: GTGCAC_site9453 (dsDNA)
DNA 1: TGTTTTATTTTATTAGTGCATTTTTATTTATAATAG
DNA 2: CTATTATAAATAAAAATGCACTAATAAAATAAAACA
B36: GTGCAC_site9748 (dsDNA)
DNA 1: GTTAATCACCATGTGGTGCATATAAGGGCATATTAT
DNA 2: ATAATATGCCCTTATATGCACCACATGGTGATTAAC
B37: GTGCAC_site10484 (dsDNA)
DNA 1: AAATTTGCTTTACCAGTGCAAAAAAAAAAAAAAAAA
DNA 2: TTTTTTTTTTTTTTTTTGCACTGGTAAAGCAAATTT
B38: GTGCAC_site10768 (dsDNA)
DNA 1: TATATATATCTTTTGGTGCATATTTCGAATATATGT
DNA 2: ACATATATTCGAAATATGCACCAAAAGATATATATA
B39: GTGCAC_site10711 (dsDNA)
DNA 1: TAATAAAATATGTACGTGCACATAATTATACTAAAA
DNA 2: TTTTAGTATAATTATGTGCACGTACATATTTTATTA
B40: GTGCAC_site10360 (dsDNA)
DNA 1: TACCCTTGCATGTAGGTGCAATTTTTTTTTTTTTTT
DNA 2: AAAAAAAAAAAAAAATTGCACCTACATGCAAGGGTA
B41: GTGCAC_site10077 (dsDNA)
DNA 1: TTCATTCAAATTAACGTGCACATTATTAGTAAAAAC
DNA 2: GTTTTTACTAATAATGTGCACGTTAATTTGAATGAA

In the series the target is T1, SIP2 D1 (Plasmodium falciparum, UniProt C6KSN9 177-235).
T1 sequence: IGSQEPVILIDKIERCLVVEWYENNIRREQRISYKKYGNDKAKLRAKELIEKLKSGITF
Put plainly: gcPBM; about 25 ug protein; PBS, 1% milk, 0.2 mg/ml BSA, salmon testes DNA, 0.03% Triton X-100. To be noted: tags: N-terminal GST (pGEX-4T-1), kept; label: surface-attached array probe.
With B1, the binding signal is 8.57 ln median PBM intensity, better of two orientations.

For B2, the binding signal is 9.76 ln median PBM intensity, better of two orientations. As for B3, the binding signal is 8.55 ln median PBM intensity, better of two orientations. Regarding B4, the binding signal was 8.81 ln median PBM intensity, better of two orientations. Regarding B5, the binding signal was 8.52 ln median PBM intensity, better of two orientations. As to B6, the binding signal was 9.56 ln median PBM intensity, better of two orientations. Turning to B7, the binding signal was 10.2 ln median PBM intensity, better of two orientations.

Take B8: the binding signal is 8.5 ln median PBM intensity, better of two orientations. For B9, the binding signal is 10 ln median PBM intensity, better of two orientations. B10: the binding signal was 9.26 ln median PBM intensity, better of two orientations.

B11: the binding signal was 9.94 ln median PBM intensity, better of two orientations.

Turning to B12, the binding signal was 9.5 ln median PBM intensity, better of two orientations.

With B13, the binding signal was 9.06 ln median PBM intensity, better of two orientations. Regarding B14, the binding signal is 9.3 ln median PBM intensity, better of two orientations. Take B15: the binding signal is 8.7 ln median PBM intensity, better of two orientations.

For B16, the binding signal is 8.63 ln median PBM intensity, better of two orientations. With B17, the binding signal was 8.59 ln median PBM intensity, better of two orientations. B18: the binding signal was 8.79 ln median PBM intensity, better of two orientations.

Turning to B19, the binding signal was 10.1 ln median PBM intensity, better of two orientations. Next, B20: 8.44 ln median PBM intensity, better of two orientations; B21: 9.02 ln median PBM intensity, better of two orientations; B22: 8.45 ln median PBM intensity, better of two orientations.

Take B23: the binding signal was 8.98 ln median PBM intensity, better of two orientations. For B24 the value was 9.22 ln median PBM intensity, better of two orientations; for B25, 9.71 ln median PBM intensity, better of two orientations; for B26, 9.85 ln median PBM intensity, better of two orientations.

As to B27, the binding signal is 9.46 ln median PBM intensity, better of two orientations.

Take B28: the binding signal was 8.87 ln median PBM intensity, better of two orientations. For B29, the binding signal was 8.77 ln median PBM intensity, better of two orientations. As to B30, the binding signal was 9.41 ln median PBM intensity, better of two orientations. For B31, the binding signal is 8.65 ln median PBM intensity, better of two orientations.

On to B32, for which the binding signal was 9.91 ln median PBM intensity, better of two orientations. As to B33, the binding signal was 9.87 ln median PBM intensity, better of two orientations. Consider B34, for which the binding signal was 9.16 ln median PBM intensity, better of two orientations.

As to B35, the binding signal is 9.34 ln median PBM intensity, better of two orientations. Turning to B36, the binding signal is 10.1 ln median PBM intensity, better of two orientations. Regarding B37, the binding signal was 8.74 ln median PBM intensity, better of two orientations.

Consider B38, for which the binding signal is 10.2 ln median PBM intensity, better of two orientations.

In the case of B39, the binding signal was 8.95 ln median PBM intensity, better of two orientations.

Take B40: the binding signal is 10 ln median PBM intensity, better of two orientations.

For the molecule B41, the binding signal was 10 ln median PBM intensity, better of two orientations.

(Values after PMC11417369, “DNA sequence and chromatin differentiate sequence-specific transcription factor binding in the human malaria parasite Plasmodium falciparum”.)
